Laboratory results published in patent US20060063715A1.

Molecular target: TAG-72 antigen (tumor-associated glycoprotein 72) (human)
Assay: competition RIA against 125I-labeled CC49 IgG (competitor), TAG-72 in a human breast carcinoma extract

Substance “CC49/212 single-chain antigen-binding protein (monomer) (scFv)” has a fold higher protein concentration needed to displace the labeled CC49 IgG (against unlabeled CC49 IgG and bivalent CC49/212) of 10 fold.
